In article PMC5841405:
pKd: −log10 of the molar value.

Columns and labels:
[1] = target: MBP-LIC1FL (human); experiment: ITC; protein or peptide in the syringe titrated into the protein in the cell; 20 mM HEPES pH 7.5, 100 mM NaCl, 0.25 mM TCEP; temperature listed in the figures (20 °C for most titrations)
[2] = target: Hook1_(11–443) (human) (UniProt Q9UJC3); experiment: ITC; MBP-LIC1FL in the syringe, Hook1_(11–443) in the cell; 30 °C; 20 mM HEPES pH 7.5, 100 mM NaCl, 0.25 mM TCEP
[3] = target: LIC1_(433–458) (human); experiment: ITC; protein or peptide in the syringe titrated into the protein in the cell; 20 mM HEPES pH 7.5, 100 mM NaCl, 0.25 mM TCEP; temperature listed in the figures (20 °C for most titrations)
[4] = target: MBP-LIC1_(1–461) (human); experiment: as above

Hook1_(11–166), sequence (Q9UJC3 11-166): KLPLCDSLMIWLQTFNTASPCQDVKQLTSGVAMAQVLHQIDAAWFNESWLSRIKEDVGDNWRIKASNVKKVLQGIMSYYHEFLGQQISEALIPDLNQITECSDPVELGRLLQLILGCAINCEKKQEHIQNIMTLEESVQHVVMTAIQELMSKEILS
Hook1_(11–443) (human), sequence (Q9UJC3 11-443): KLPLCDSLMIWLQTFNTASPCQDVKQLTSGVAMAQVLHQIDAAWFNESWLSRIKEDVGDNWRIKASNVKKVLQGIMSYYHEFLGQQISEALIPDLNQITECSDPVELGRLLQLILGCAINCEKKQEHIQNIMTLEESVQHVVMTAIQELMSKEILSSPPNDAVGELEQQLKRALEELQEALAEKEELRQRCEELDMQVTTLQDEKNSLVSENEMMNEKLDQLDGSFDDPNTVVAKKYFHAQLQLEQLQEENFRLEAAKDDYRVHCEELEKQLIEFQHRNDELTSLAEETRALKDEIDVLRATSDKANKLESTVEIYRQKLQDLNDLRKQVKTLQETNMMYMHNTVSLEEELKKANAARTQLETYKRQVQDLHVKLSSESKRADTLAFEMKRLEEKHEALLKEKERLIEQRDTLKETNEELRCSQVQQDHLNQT

Row | pKd [1] | stoichiometry N [1] | pKd [2] | stoichiometry N [2] | pKd [3] | pKd [4] | Substance
1 | 4.89 | 1 | – | – | – | – | Hook1_(1–239)GCN4 (from UniProt Q9UJC3-1 1-239)
2 | – | – | 5.09 | 1 | – | – | MBP-LIC1FL (natural protein)
3 | 4.90 | 1 | – | – | 4.80 | 5.00 | Hook1_(11–166) (from UniProt Q9UJC3-1 11-166) (domain or fragment)
